Like-named read-outs stand apart in the source and are kept apart here.
Experiments:
[1] = target: HCV NS3 full length (bacNS3 derived) (Hepatitis C virus strain H) (UniProt P27958)
[2] = target: HCV NS3 full length (bacNS3-5B derived) (Hepatitis C virus strain H) (UniProt P27958)
[3] = target: HCV NS3 full length (bacNS3-5B derived) (Hepatitis C virus strain H) (UniProt P27958); settings: Km for RNA substrate; helicase strand displacement, PIPES pH 6.5, MnCl2, 37 C

Sequence of HCV NS3 full length (bacNS3-5B derived) (Hepatitis C virus strain H) (P27958 1027-1657): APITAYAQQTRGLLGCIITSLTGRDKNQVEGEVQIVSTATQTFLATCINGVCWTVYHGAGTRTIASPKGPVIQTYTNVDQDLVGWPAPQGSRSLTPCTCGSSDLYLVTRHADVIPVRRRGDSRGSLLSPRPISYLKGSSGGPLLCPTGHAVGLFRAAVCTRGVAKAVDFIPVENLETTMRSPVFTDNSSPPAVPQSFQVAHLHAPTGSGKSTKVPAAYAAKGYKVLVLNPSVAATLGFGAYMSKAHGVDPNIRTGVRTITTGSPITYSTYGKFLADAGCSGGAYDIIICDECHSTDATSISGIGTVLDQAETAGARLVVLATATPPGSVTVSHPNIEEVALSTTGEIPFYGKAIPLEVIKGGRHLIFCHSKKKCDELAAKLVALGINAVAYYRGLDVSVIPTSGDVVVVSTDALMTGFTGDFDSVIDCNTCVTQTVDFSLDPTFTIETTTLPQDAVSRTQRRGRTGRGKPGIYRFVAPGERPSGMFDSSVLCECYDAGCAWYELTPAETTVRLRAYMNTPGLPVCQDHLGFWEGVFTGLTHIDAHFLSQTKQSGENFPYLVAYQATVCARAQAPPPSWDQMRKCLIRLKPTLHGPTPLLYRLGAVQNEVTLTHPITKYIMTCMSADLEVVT
Sequence of HCV NS3 full length (bacNS3 derived) (Hepatitis C virus strain H) (P27958 1027-1657): as above

poly(U)
activity ([1]; ATPase rate with poly(U), 0 without): 659 min⁻¹
activity ([2]; ATPase rate with poly(U), 23 without): 1050 min⁻¹

standard RNA helicase substrate (3' and 5' single strand regions)
activity [3]: 0.5 nM
activity ([1]; helicase catalytic rate): 0.003 min⁻¹
activity ([2]; helicase catalytic rate): 0.01 min⁻¹

— patent US20020081574
